Measured values published in patent publication US20090291088A1 (Biogen, published 2009).
Changes are numbered by the printed parent chain.

B1: M14-G11.G4.P (antibody, human IgG4, V domains shown)
VH: EVQLLESGGGLVQPGGSLRLSCAASGFTFSNYPMYWVRQAPGKGLEWVSRISSSGGRTVYADSVKGRFTISRDNSKNTLYLQMNSLRAEDTAVYYCARDRWSRSAAEYGLGGYWGQGTLVTVSS
VL: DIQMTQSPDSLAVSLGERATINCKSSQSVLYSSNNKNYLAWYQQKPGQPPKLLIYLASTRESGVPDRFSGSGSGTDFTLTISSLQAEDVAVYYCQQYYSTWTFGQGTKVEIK
notes: Full-length human IgG4.P, kappa; also called M14.G11.P; G4 version of M14-G11
B2: M14-G11.G4.P.agly (antibody, human IgG4 S228P, kappa, V domains shown)
VH: B1 VH
VL: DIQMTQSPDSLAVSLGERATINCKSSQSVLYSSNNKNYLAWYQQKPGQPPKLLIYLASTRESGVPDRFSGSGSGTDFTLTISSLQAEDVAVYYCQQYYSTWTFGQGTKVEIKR
notes: Full-length human aglycosylated IgG4.P, kappa; Places that say only 'M14-G11 antibody' were assigned to this version; also called M14-G11_Ab; Biotin-G11
B3: P2A7.3E11 (antibody, IgG2a, V domains shown)
VH: QVQLQQSGPELVKPGASVKMSCKASGNTFTDYVINWVKQRTGQGLEWIGEIYPGNENTYYNEKFKGKATLTADKSSNTAYMQLSSLTSEDSAVYFCARGIYYYGSRTRTMDYWGQGTSVTVSS
VL: EVVLTQSPTAMAASPGEKITITCSASSTLSSNYLHWYQQKPGFSPKLLIYRTSNLASGVPGRFSGSGSGTSYSLTIGTMEAEDVATYYCQQGSSIPLTFGAGTKLELK
notes: Murine hybridoma antibody, IgG2a/k; also called muP2A7
B4: P1E2.3B12 (antibody, IgG2b, V domains shown)
VH: QVQLQQPGAELVKPGASVKLSCKASGYTFTSYWMHWVKQRPGQGLEWIGEINPTYGRSNYNEKFKSKATLTVDKSSSTAYMQLSSLTSEDSAVYYCARLVRLRYFDVWGAGTTVTVSS
VL: DIVMTQAAFSNPVTLGTSASISCRSSKSLLHSNGITYLYWYLQKPGQSPQLLIYQMSNLASGVPDRFSSSGSGTDFTLRISRVEAEDVGVYYCAQNLELPYTFGGGTKLEIK
notes: Murine hybridoma antibody, IgG2b/k; also called P1E2 (hybridoma)
B5: P1A2.2B11 (antibody, IgG2b, V domains shown)
VH: QIQLVQSGPELKKPGETVKISCKASGYTFTNHGMNWVKQAPGKGLKWMGWNTSTGEPTYADDFKGRFAFSLETSASTAFLQINNLKNEDTASYFCASPLYYMYGRYIDVWGAGTAVTVSS
VL: DIQMTQTTSSLSASLGDRVTISCRASQDISNYLNWYQQKPDGTIKLLIYYTSRLHSGVPSRFSGSGSGTDYSLTISNLEQEDFATYFCQQGKTLPWTFGGGTKLEIK
notes: Murine hybridoma antibody, IgG2b/k
B6: P1G10.2B8 (antibody, IgG1, V domains shown)
VH: QIQLVQSGPDLKKPGETVKISCKASGYTFTNHGMNWVKQAPGKDLKWMGWINTNTGEPTYADDFKGRFAFSLETSASTAYLQINNLKNEDTATYFCASPLYYRNGRYFDVWGAGTTVTVSS
VL: B5 VL with T43S, I44V, F83I
notes: Murine hybridoma antibody, IgG1/k
B7: M12-G04.G4.P (antibody, human IgG4, V domains shown)
VH: EVQLLESGGGLVQPGGSLRLSCAASGFTFSKYTMHWVRQAPGKGLEWVSSIVSSGGWTDYADSVKGRFTISRDNSKNTLYLQMNSLRAEDTAVYYCARDRSIAAAGTGWSVSFVDWFDPWGQGTLVTVSS
VL: DIQMTQSPLSLSASVGDRVTITCRASQSINGYLNWYQQKPGKAPNLLIYATSSLQSGVPSRFSGSGSGTDFTLTISSLQPEDFATYYCQQSYSTPPYTFGQGTKLEIK
notes: Full-length human IgG4.P, kappa; also called G4 version of M12-G04
B8: M12-G04 Fab (Fab, V domains shown)
VH: B7 VH
VL: B7 VL
notes: Human phage Fab, kappa

Experiments:
human IGF-1R(1-903)-Fc [1] = target: T1, human IGF-1R(1-903)-Fc (human, UniProt P08069 31-933); assay: ELISA, plate coated with soluble IGF-1 receptor Fc fusion protein, detection with anti-human kappa-HRP
T1 construct: Made by Biogen Idec; Multimerises through IGF-1R and Fc; also called hIGF-1R-Fc; IGF-1R-Fc; not shown: C-terminal human IgG1-Fc tag
Procedure: The plate was washed with phosphate-buffered saline (PBS, Irvine Scientific, Cat#9240), pH 7.4 plus 0.025% Tween 20 in the Skan Washer 300 (Skatron Instruments), blocked with buffer containing 1% nonfat milk, 0.05% Tween 20 in PBS, pH 7.4, and then incubated at room temperature for 1 hour. After incubation plate was washed with PBS plus 0.025% Tween 20 in the Skan Washer 300. […] Following a one hour incubation at room temperature, plate was washed with PBS plus 0.025% Tween 20 in the Skan Washer 300. […] Plate incubated for 1 hour at room temperature was washed with PBS plus 0.025% Tween 20 in the Skan Washer 300. […] The absorbance was measured at 450 nm, background 540 nm for TMB using the Molecular Devices plate reader. Data was analyzed using the SOFTMAX PRO software package version 4.3 LS (Molecular Devices Corp.).

[2] = target: T2, Rhesus IGF-1R expressed on CHO cells (rhesus monkey, UniProt I2CWY3 31-1367); assay: flow cytometry and confocal microscopy, CHO transfectants
T2 construct: whole, on cells; also called Rhesus IGF-1R/CHO
T2 sequence (I2CWY3 entry or part of it): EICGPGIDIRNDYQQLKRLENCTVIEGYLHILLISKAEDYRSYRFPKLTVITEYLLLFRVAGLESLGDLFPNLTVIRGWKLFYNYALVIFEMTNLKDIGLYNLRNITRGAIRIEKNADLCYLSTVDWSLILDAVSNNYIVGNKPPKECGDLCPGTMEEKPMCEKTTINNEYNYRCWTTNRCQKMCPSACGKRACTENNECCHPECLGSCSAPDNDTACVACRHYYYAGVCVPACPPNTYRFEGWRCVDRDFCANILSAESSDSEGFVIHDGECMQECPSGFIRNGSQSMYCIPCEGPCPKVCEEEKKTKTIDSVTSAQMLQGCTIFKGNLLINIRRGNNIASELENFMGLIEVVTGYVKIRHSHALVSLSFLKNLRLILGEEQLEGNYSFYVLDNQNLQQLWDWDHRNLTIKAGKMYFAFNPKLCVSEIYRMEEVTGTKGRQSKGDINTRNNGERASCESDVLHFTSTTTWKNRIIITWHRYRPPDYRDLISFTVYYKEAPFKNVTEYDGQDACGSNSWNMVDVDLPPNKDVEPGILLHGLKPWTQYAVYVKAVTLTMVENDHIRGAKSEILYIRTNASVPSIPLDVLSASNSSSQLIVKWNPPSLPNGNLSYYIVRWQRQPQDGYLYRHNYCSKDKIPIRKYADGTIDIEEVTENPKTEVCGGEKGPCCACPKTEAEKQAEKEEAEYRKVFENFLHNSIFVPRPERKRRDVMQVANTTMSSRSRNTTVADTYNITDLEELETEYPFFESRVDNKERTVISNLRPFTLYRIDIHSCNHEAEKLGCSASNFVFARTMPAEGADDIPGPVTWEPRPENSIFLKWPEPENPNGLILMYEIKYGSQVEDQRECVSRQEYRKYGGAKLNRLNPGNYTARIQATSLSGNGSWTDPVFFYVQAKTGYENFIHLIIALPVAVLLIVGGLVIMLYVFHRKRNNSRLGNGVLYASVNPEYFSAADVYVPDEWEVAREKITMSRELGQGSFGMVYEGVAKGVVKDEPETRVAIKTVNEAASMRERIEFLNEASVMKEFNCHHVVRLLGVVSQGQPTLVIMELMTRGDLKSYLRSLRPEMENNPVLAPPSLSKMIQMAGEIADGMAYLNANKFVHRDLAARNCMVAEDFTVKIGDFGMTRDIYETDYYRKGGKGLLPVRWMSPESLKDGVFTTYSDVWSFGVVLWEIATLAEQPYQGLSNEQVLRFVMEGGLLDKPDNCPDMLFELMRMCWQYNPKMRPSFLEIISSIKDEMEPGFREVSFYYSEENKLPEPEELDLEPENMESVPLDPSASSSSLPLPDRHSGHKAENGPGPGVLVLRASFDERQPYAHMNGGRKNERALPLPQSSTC

[3] = target: T3, human IGF-1R expressed on cells (human, UniProt P08069 31-1367); assay: cell-based or functional assay
[4] = target: T4, murine IGF-1R expressed on cells (mouse, UniProt Q60751 31-1373); assay: binding to CHO transfectants
T4 construct: whole, on cells; also called mouse IGF-1R
T4 sequence (Q60751 31-1373): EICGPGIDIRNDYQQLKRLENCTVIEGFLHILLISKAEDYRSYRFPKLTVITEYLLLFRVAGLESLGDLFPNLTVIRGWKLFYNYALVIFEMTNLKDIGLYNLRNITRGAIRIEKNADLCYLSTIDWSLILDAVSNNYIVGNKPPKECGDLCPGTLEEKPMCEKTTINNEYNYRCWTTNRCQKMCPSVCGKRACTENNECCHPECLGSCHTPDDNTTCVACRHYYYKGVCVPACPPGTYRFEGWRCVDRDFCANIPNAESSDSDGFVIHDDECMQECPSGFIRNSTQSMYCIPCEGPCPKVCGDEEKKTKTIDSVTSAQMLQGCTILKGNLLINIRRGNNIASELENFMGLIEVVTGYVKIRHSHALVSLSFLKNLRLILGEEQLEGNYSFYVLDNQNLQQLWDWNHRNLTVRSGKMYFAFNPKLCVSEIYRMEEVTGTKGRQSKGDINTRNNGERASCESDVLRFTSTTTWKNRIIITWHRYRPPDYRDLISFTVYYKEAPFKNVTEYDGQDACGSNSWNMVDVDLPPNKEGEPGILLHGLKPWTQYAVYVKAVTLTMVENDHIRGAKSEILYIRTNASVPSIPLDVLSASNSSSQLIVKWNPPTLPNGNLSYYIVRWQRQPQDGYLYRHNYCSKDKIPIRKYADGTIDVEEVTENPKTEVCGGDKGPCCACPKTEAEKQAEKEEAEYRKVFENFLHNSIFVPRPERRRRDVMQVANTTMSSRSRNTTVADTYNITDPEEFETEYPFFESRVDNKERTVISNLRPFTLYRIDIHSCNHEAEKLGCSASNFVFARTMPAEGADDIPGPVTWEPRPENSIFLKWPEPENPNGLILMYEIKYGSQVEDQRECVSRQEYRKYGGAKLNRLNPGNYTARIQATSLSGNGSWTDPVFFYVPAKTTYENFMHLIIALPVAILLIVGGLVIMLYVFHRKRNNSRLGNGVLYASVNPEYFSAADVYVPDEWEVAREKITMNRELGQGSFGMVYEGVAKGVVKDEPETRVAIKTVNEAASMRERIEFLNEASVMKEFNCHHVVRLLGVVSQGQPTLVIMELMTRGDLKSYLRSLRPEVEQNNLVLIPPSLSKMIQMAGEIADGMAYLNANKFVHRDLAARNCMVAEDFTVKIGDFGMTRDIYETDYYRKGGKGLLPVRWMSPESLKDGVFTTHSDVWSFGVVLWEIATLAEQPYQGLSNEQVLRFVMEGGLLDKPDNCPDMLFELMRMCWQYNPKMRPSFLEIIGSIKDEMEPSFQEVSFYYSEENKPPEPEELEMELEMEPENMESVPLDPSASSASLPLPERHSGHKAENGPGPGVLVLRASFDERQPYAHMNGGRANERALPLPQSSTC

[5] = target: T5, human IGF-1R(1-902)-His10 (human, UniProt P08069 31-932); assay: SPR, antibody over captured IGF-1R-10His
T5 construct: Cy5-labelled in tr-FRET; also called hIGF-1R-His10; IGF-1R-His
Procedure: All surface plasmon resonance (SPR) experiments were performed on a Biacore 3000 set to 25° C. using HBS-EP (Biacore, Cat. No. BR-1001-88) as the running buffer. A biotin-labeled anti-HisTag antibody (biotin-PENTA-His, Qiagen Cat. No. 34440) was immobilized to saturation on a Biacore SA chip (Cat. No. BR-1000-32) surface by injection at 500 nM in HBS-EP buffer. […] Subsequent to IGF-1R injections, flow rates were increased to 20 μL/min. A second, 130 μL injection of anti-IGF-1R antibody or Fab was performed to investigate interactions with the receptor. Each antibody and Fab was serially diluted from 64 nM to 0.5 nM to obtain concentration dependent kinetic binding curves. Each injection series was regenerated using 3×10 μL injections of 10 mM Acetate, pH 4.0, at 20 μL/min. Each curve was double referenced using (1) data obtained from a streptavidin surface devoid of IGF-1R and (2) data from a primary injection of IGF-1R followed by a secondary injection of HBS-EP buffer. The concentration series for each antibody and Fab was fit to the 1:1 binding model provided within the BiaEvaluation software of the manufacturer.
The rates at which the antibodies accumulate on the IGF-1R coated surface when applied at various concentrations as well as the rates at which they dissociated during applications of pure buffer were investigated by fitting the data to a 1:1 binding model. Approximate kinetic rate constants and equilibrium dissociation constant were calculated (Table 14).

human IGF-1R(1-903)-Fc [6] = target: T1, human IGF-1R(1-903)-Fc; assay: ELISA on hIGF-1R-Fc, competitor biotinylated M14-G11
[7] = target: T6, human insulin receptor expressed in mammalian cells (UniProt P06213 28-1382, limits assumed); assay: immunoprecipitation from IR CHO lysate, western blot with mouse anti-human IR
T6 construct: whole, on cells; Cells were solubilised with Triton X-100 before immunoprecipitation; also called INSR; IR
Procedure: Recombinant IGF-1R and insulin receptor (IR) were independently expressed in mammalian cells (3T3 or CHO). […] Antibody/antigen complexes were released from the beads by acid treatment, applied to Tris-Glycine SDS-PAGE gels and blotted to nitrocellulose membranes. Detection was performed using mouse anti-human IR (FIG. 24A) or mouse anti-human IGF-1R (FIG. 24B) and goat α-mouse IgG.

human IGF-1R(1-903)-Fc [8] = target: T1, human IGF-1R(1-903)-Fc; assay: ELISA on hIGF-1R-Fc, competitor Zenon-labelled αIR3
[9] = target: T5, human IGF-1R(1-902)-His10; assay: protein ELISA
[10] = target: T3, human IGF-1R expressed on cells; assay: binding to MCF-7 tumor cells
[11] = target: T3, human IGF-1R expressed on cells; assay: flow cytometry, MCF-7 cells
Procedure: The ability of Fabs to bind to the wild type IGF-1R was determined by flowcytometry using MCF-7 tumor cell line.
MCF-7 cells (Human Breast Adenocarcinoma from NCI) were split 24 hours prior to the setup of the assay to obtain 70% confluent monolayer. Routinely, MCF-7 cell line was maintained within 20 passages. Cells were lifted with cell dissociation buffer (Gibco catalog #13151-014), counted, washed and adjusted to 1×10⁶ cells/ml and one ml of cells were then added to each tube (12×75 mm tube Falcon catalog# 352054). Cells were pelleted and supernatant removed by centrifugation at 1200 rpm for 5 min and 100 μl of diluted antibodies were then added to the cell pellet. Purified Fabs were tested at a starting concentration of either 210 or 60 μg/ml with 1:3 dilutions in FACS buffer, down to 0.001 μg/ml. FACS buffer used throughout the assay was PBS (without Ca++/Mg++) containing 1% BSA (Sigma catalog# A-7906; Sigma-Aldrich Corp. (St. Louis, Mo., USA)) and 0.1% Sodium Azide (Sigma catalog #S2002). […] Samples were allowed to incubate on ice for 1 hour and 15 minutes then were washed with 2 ml FACS buffer and centrifuged at 1200 rpm for 5 minutes at 4° C. The supernatant was aspirated and 100 μl of the secondary detection antibody was added to each corresponding tube in FACS buffer. Samples were then incubated for 30 minutes on ice, in the dark. Cells were washed as described above, then, re-suspended in […] FACS buffer per tube/sample.
Cells were stained for live cell determination with Propidium Iodide staining solution (PI for dead cell exclusion; BD Pharmingen catalog# 51-66211E or 556463; use at 1:500 final in FACS buffer). Samples were run on the FACSCalibur instrument (Becton Dickinson) with 10,000 live events collected per sample.

human INSR(28-956)-His10 = target: T7, human INSR(28-956)-His10 (human, UniProt P06213 28-956); assay: ELISA, plate coated with rh-INSR
T7 construct: range 28-956; Bought (R&D Systems 1544-IR); also called rh-INSR; soluble insulin receptor
Procedure: ELISA assays were performed to determine specific binding of the Fab fragment antibodies to soluble IGF-1R over the insulin receptor. […] Color development was stopped by addition of 4NH₂SO₄ and optical density is measured at 450 nm using a Molecular Devices plate reader and binding curves are generated.

Binder | EC50 (read off the curve) (human IGF-1R(1-903)-Fc [1]) | EC50 [9] | EC50 [10] | further results
B1 | ~0.06 nM |  |  | binding result [2]: binds; inhibition of IGF-1 and IGF-2 mediated IGF-1R receptor phosphorylation (EC50) [3]: < 1 nM; binding result [4]: binds
B2 | ~0.06 nM |  |  | Kd [5]: 0.11 nM; koff [5]: 0.00011 s⁻¹; kon [5]: 1e+06 M⁻¹ s⁻¹; percent competition (relative to self-competition) (human IGF-1R(1-903)-Fc [6]): 90 to 100%; binding result [7]: no binding; percent competition (relative to self-competition) (human IGF-1R(1-903)-Fc [8]): 50 to 70%
B3 |  | 0.011 nM | 0.447 nM | 
B4 |  | 0.016 nM | 0.391 nM | 
B5 |  | 0.023 nM | 1.1 nM | 
B6 |  | 0.075 nM | 2.06 nM | 
B7 | ~0.2 nM |  |  | 
B8 |  |  |  | EC50 [11]: 25 nM; binding result (human INSR(28-956)-His10): no binding (tested: about 5000 nM)
